Reference: US20230096030A1 (UCB, published 2023)

Assays:
[1] = biological target: T1, full length cell-expressed CD9 (human, UniProt P21926 2-228); assay: selection on cells expressing CD9; method not described
T1 construct: also called human CD9
T1 sequence: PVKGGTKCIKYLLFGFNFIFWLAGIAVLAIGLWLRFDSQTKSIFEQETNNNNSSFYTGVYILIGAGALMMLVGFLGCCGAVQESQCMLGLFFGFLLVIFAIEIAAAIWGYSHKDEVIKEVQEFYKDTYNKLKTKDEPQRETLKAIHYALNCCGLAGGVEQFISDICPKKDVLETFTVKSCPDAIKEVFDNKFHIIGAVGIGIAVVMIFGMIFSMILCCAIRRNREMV

[2] = biological target: T2, recombinant human CD9 long extracellular loop 2-human Fc fusion protein (10015-CD, R&D Systems) (human, UniProt P21926 112-195); assay: BLI (Octet RED384), CD9 loop 2-Fc on AHC biosensors, Fab-Y 10 µg/mL
T2 construct: Bought reagent; the order here follows the printed name; also called CD9-loop2; long extracellular loop 2 peptide; not shown: human Fc
T2 sequence: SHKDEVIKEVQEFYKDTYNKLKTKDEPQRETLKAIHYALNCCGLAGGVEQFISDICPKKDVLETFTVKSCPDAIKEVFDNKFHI
Excerpt: CD9 contains two extracellular loops: a short extracellular loop (loop 1: 34-55 in SEQ ID NO:2) and a long extracellular loop (loop 2: 112-195 in SEQ ID NO:2). We used biolayer interferometry to assess binding of our panel of CD9 Fab-Y antibodies (selected for binding to full length cell-expressed CD9) to the long extracellular loop 2 peptide using the Octet® RED384 System (FortéBio) with Anti-hlgG Fc Capture (AHC) Biosensors (FortéBio) at room temperature. Firstly, an array of 8 sensors was dipped in kinetics buffer (PBS 0.1%, BSA 0.02%, Tween 20) for 120 seconds to provide a baseline signal. Sensors were then moved to wells containing 200 μl of recombinant human CD9 long extracellular loop 2-human Fc fusion protein (10015-CD, R&D Systems®) at 2 μg/mL in kinetics buffer to immobilize the protein to the biosensor (100 seconds), followed by a second baseline step (180 seconds) in kinetics buffer to equilibrate the biosensors now coated with the CD9 long extracellular loop 2-human Fc fusion protein. No detachment of the peptide was observed during this step. Sensors were then dipped in wells containing one of the anti-CD9 Fab (10 μg/mL) to evaluate association of each antibody to CD9-loop2 (120 seconds), followed by dissociation in kinetics buffer (600 seconds). Anti-CD137 Fab-Y (11175) was used as negative control during the antibody association step. […]

B1: anti-CD9 Fab-Y 7272 (Fab, V domains shown)
VH: QSLEESGGRLVTPGTPLTLTCTVSGFSLSSYAMGWVRQAPGKGLEWIGAIGSITATGYARWAKGRFSISKTSTTVDLKMTSPTTEDTATYFCAREIYVGSAYAFDIWGPGTLVTVSS
VL: AYDMTQTPASVEVAVGDTVTIKCQASQSISNYLAWYQQKPGQPPKLLIYLASTLASGVPSRFKGSGSGTEFTLTISDLECADAATYYCQQGYIDNVNKGFGGGTEVVVK
notes: Tested as Fab-Y: Fab with the GCN4 peptide (clone 7P14P) attached by a peptide linker to CH1; also called VR7272
B1: binds [1]; binds [2].
